Source: patent US20230331824A1 (ROCKEFELLER UNIVERSITY, published 2023)
Like-named read-outs stand apart in the source and are kept apart here.

How the values were obtained:
[1] = target: T1, recombinant SARS-CoV-2 spike RBD (untagged) (SARS-CoV-2, UniProt P0DTC2 319-541); assay: SPR
T1 construct: domain: RBD

[2] = target: T2, SARS-CoV-2 spike protein (SARS-CoV-2, UniProt P0DTC2 14-1273); assay: cell-based or functional assay
[3] = target: T1, recombinant SARS-CoV-2 spike RBD …; assay: SPR; remark: listed apart in the source
[4] = target: T2, SARS-CoV-2 spike protein; assay: cell-based or functional assay; remark: listed apart in the source
[5] = target: SARS-CoV-1 spike on pseudovirus (SARS-CoV-1, UniProt P59594 14-1255); assay: cell-based or functional assay
[6] = target: T3, recombinant SARS-CoV-2 spike S1-His (SARS-CoV-2, UniProt P0DTC2 16-685); assay: pull-down on immobilized S1, band quantified
T3 construct: domain: S1

[7] = target: T4, recombinant SARS-CoV-2 spike S2-His (SARS-CoV-2, UniProt P0DTC2 686-1213); assay: pull-down on immobilized S2, band quantified
T4 construct: domain: S2

[8] = target: T1, recombinant SARS-CoV-2 spike RBD …; assay: periplasm pull-down on immobilized S1-RBD, SDS-PAGE

B1: S1-RBD-16 (VHH)
VHH: QVQLVESGGGLVQSGGSLRLSCVASGRGFDRYPMGWFRQAPGKEREFVGGINWNGANTYYADSVKGRFTISRDNTKNTVYLQMNSLKPEDTALYYCAADQHYMGSPPPKEYEYDYWGQGTQVTVS
[1]
  Kd: 3.73 nM
  koff: 6.25e-05 s⁻¹
  kon: 16800 M⁻¹ s⁻¹
[2]
  PSV neutralisation IC50: 79.2 nM

B2: S1-RBD-23 (VHH)
VHH: QVHLVESGGDLVQPGGSLRLSCVASGSGFENNAITWYRQAPGKERELVSGITSGGSTNYADSVKGRFTISRDNAKNTVYLEMNSLKPEDTAVYLCQAVAWDSRRRSVVAFWGQGTQVTVS
[1]
  Kd: 0.0159 nM
  koff: 4.61e-05 s⁻¹
  kon: 2.89e+06 M⁻¹ s⁻¹
[2]
  PSV neutralisation IC50: 7.31 nM

B3: S1-RBD-29 (VHH)
VHH: QVQLVESGGGLVQDGGSLRLSCAASGLASIVFNMGWFRQAPGKEREFVAGILGSGQSTYYGNSVKGRFTISRDSAKNTVYLQMNSLKPEDTAVYYCAAGGRLDLVNTTGGYEPTYWGQGTQVTVS
[3]
  Kd: 2.51 nM
  koff: 0.00135 s⁻¹
  kon: 536000 M⁻¹ s⁻¹
[4]
  PSV neutralisation IC50: 9.53 nM

B4: S1-RBD-40 (VHH)
VHH: QVQLVESGGGLVQAGGSLRLSCAASGITFSNYGMVWWRQAPGKQREFVASISSGRDTNYADFVKGRFTISRDNAKNTVHLQMNSLKPEDTAVYYCYTVTDRSDYWGQGTQVTVS
[3]
  Kd: 0.0371 nM
  koff: 2.77e-05 s⁻¹
  kon: 747000 M⁻¹ s⁻¹
[4]
  PSV neutralisation IC50: 25.6 nM

B5: S1-1 (VHH)
VHH: QVQLVESGGGLVQAGGSLRLSCAASGMPFSSYAMGWFRQAPGKEREFVAAVNWNGISTYLADSVKGRFTASRDNAKNTAYLQMNSLKPEDTAVYYCAADSKGWSEWGMDYWGKGTLVTVS
[5]
  SARS-CoV-1 PSV neutralisation IC50: 8.62 nM

B6: S1-3 (VHH)
VHH: QVQLVESGGGLVQAGGSLRLSCAASGSTFSNTGLGWYRQAPGKQREWVASISPSGSTSYLDSVRGRFIFSRDNAKNIAYLQMNSLKPEDTAVYYCNTLPRSGSWGQGTQVTVS
[5]
  SARS-CoV-1 PSV neutralisation IC50: 4160 nM

B7: S1-8 (VHH)
VHH: QVQLVESGGGLVQAGGSLRLSCAASGRVLSSYVMGWFRQAPGKEREFVAAIRWNGGSTFYADSVKGRLTISRDNAKNTVYLQMNSLKPEDTAAYYCAASPRTMYDATYYYSRTSYDYWGQGTQVTVS
notes: also called S1 Nanobody # 8
[6]
  binding result: binds

B8: S1-13 (VHH)
VHH: EVQLVESGGGLVQPGGSLKLSCAASGFTLDDYTIGWFRQAPGKEREGVSYISSSGSNSYYEDSVKGRFTISRDNAKSTVYLQMNSLKPEDTAVYYCAARRVWQQTIVVRGPVHYEYWGHGTQVTVS
notes: also called S1 Nanobody # 13
[6]
  binding result: binds

B9: S1-18 (VHH)
VHH: QVRLVESGGGLVQPGGSLRLSCVVSGVSGSAFRFNRLGWYRQPPGKERELVASISSGGSTNYADSVKGRFTISRDNAKSTVSLQMNSLKPEDTAVYYCNIRADFFSSGRTGDWGQGTQVTVS
notes: also called S1 Nanobody # 18
[6]
  binding result: binds

B10: S2-12 (VHH)
VHH: QVQLVESGGGLVQAGGSLRLSCVASEPTFSSRTMGWFRQAPGKERDFVAAMPWWKGALPNYKDSVKGRFTISIDSAKNTMYLQMNSLKPEDTAVYYCAASKTWSPRTEVATEHEFRGQGTQVTVS
notes: also called S2 Nanobody # 12
[7]
  binding result: binds

B11: S2-20 (VHH)
VHH: QVQLVESGGGLVQPGGSLRLSCAASGFTLTYYTISWFRQAPGKEREWVSSSRISGNTYYTDSVKGRFTISRDNAKSVVYLQMNSLKPEDTATYYCASGRNIPYDTYTNPTKYDYWGRGTQVTVS
notes: also called S2 Nanobody # 20
[7]
  binding result: binds

B12: S2-23 (VHH)
VHH: QVQLVESGGGLVQPGGSLRLSCAASGRTFSSAMMGWFRQAPGKEREFVASIDWRYQYRYYADSVKGRFTISRDNAKNMVYLQMNSLKPEDTAVYYCACQIERSGIYHYEDSNKYQSWGQGTQVSVS
notes: also called S2 Nanobody # 23
[7]
  binding result: binds

B13: S2-24 (VHH)
VHH: QVQLVESGGGLVQAGGSLRLSCAASGVTFSSHHMAWYRQTPGKQRELVATLASGGDTNYADSVKGRFTISRDNTKNTIYLQMNSLKPEDTAVYYCNARLWATGFRDYWGQGTQVTVS
notes: also called S2 Nanobody # 24
[7]
  binding result: binds

B14: S2-29 (VHH)
VHH: QVQLVESGGGLVQPGGSLRLSCAASGRIFSSNAMGWYRQAPGKEREWVACISSGSSTNYADSVKGRFTISRDNAKNTVYLQMNSLKPEDTAVYYCISKEVGWCGREGPIGSWGQGTQVTVS
notes: also called S2 Nanobody # 29
[7]
  binding result: binds

B15: S2-30 (VHH)
VHH: QVQLVESGGGLVQAGGSLRLSCAASGSTFGNYAMGWYRQPPQAPGNQRDLVAFISTTGSTNYADSVKGRFTISRDNAKNTMYLQMNSLKPEDTAVYYCQAIERIVGYVSWGQGTQVTVS
notes: also called S2 Nanobody # 30
[7]
  binding result: binds

B16: S2-34 (VHH)
VHH: QVQLVESGGGLVQTGGSLRLSCAASGITFNTYGMGWYRQAPGKQRELVAGIPSIGNINYARFVQGRFTVSRDDGKKAVYLQMNSLKPEDTAIYYCNLQTRFGTNYWGQGTQVTVS
notes: also called S2 Nanobody # 34
[7]
  binding result: binds

B17: S2-37 (VHH)
VHH: QVQVMESGGGLVQAGGSLRLSCAASTGILGGYDMRWYRQTPGNERELVASISSDGSTNYVDFVKGRFTISSDNAKNTVYLQMDSLKSEDTAVYYCNMRSTYYAIDYWGRGTQVTVS
notes: also called S2 Nanobody # 37
[7]
  binding result: binds

B18: S2-44 (VHH)
VHH: QVQFVESGGGLVQPGGSLRLSCVGSEFTLDNYDIGWFRQAPGKEREWVSCITPRGNIINYADSVKGRFTISRDNAKNTAFLQMNSLKPEDTAVYYCARSSALYDCSQRQTRFFSSWGQGTQVTVS
notes: also called S2 Nanobody # 44
[7]
  binding result: binds

B19: S2-45 (VHH)
VHH: QVQLVESGGGLVQAGGSLRLSCAASGLTFSSRAMAWFRQAPGKEREFVARISWSGRNTYYGDSVKGRFTISRDNAKNTVYLQMSSLEPEDTAVYRCAADQQYYNRYYNDEQGYAFWGQGTQVTVS
notes: also called S2 Nanobody # 45
[7]
  binding result: binds

B20: S2-49 (VHH)
VHH: DVQLVESGGGLVQPGGSLRLSCAVSGLTLPYFTISWFRQAPGKEREWVSSSRITGNTYYADSVKGRFTVSRDNAKSTVYLQMNRLKAEDTATYYCASGRNINYYTNSAEYNYWGRGTQVTVS
notes: also called S2 Nanobody # 49
[7]
  binding result: binds

B21: S1-RBD-13 (VHH)
VHH: EVQLVESGGGLVQAGGSLRLSCAAPTLTLSSHTIGWFRQAPGKEREGVSYIPMTGLPIYCRDSVKGRFTISTDNAKNTVYLQMDSLKPEDTAVYYCAALLGVRSRMCPESVYTYWGQGTQVTVS
notes: also called S1-RBD Nanobody # 13
[8]
  binding result: binds
